Measured values as given in EP4692114A1, “CALCITONIN ANALOGUE, AND DERIVATIVE THEREOF AND USE THEREOF” (Hangzhou Sciwind Biosciences Co., Ltd., priority 2023, dated 2024).
*1 amine or outer side, *2 acyl side, *3 side chain or, on linkers, in order; H or OH if unused. The star is where a group is joined. C20 diacid = O=C(O)CCCCCCCCCCCCCCCCCCC(=O)*; C18 diacid = O=C(O)CCCCCCCCCCCCCCCCC(=O)*; C16 diacid = O=C(O)CCCCCCCCCCCCCCC(=O)*; γGlu = O=C(O)[C@H](CCC(=O)[*:2])N[*:1]; AEEA = NCCOCCOCC(=O)O

T1: human amylin receptor (AMY3) on CHO-K1/Gal5/AMY3 cells (human, UniProt P30988 25-474; O60896 24-148)
T1 sequence (looked up) 1: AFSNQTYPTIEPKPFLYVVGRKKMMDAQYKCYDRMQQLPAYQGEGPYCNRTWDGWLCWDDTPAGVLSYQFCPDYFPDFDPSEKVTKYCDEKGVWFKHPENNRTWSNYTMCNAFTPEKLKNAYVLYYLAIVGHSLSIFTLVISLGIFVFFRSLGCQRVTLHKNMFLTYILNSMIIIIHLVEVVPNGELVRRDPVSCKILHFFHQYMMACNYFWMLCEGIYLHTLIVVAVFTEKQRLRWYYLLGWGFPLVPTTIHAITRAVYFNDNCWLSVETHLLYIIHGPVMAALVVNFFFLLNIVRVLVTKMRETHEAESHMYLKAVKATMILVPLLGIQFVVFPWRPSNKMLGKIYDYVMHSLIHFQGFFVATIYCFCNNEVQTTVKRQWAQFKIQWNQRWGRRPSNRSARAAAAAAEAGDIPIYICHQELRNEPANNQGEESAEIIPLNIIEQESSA
T1 sequence (looked up) 2: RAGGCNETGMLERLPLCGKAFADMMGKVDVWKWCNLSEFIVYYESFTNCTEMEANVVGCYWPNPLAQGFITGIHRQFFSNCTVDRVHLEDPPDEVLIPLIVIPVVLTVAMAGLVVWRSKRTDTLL

B1: calcitonin derivative M19 (peptide)
peptide: {C20 diacid-γGlu}-ASQLSTAVLGRLSQELHRLQDYPRTDVGAGSP-NH2
SMILES: CC(C)C[C@H](NC(=O)[C@H](CCCNC(=N)N)NC(=O)CNC(=O)[C@H](CC(C)C)NC(=O)[C@@H](NC(=O)[C@H](C)NC(=O)[C@@H](NC(=O)[C@H](CO)NC(=O)[C@H](CC(C)C)NC(=O)[C@H](CCC(N)=O)NC(=O)[C@H](CO)NC(=O)[C@H](C)NC(=O)CC[C@H](NC(=O)CCCCCCCCCCCCCCCCCCC(=O)O)C(=O)O)[C@@H](C)O)C(C)C)C(=O)N[C@@H](CO)C(=O)N[C@@H](CCC(N)=O)C(=O)N[C@@H](CCC(=O)O)C(=O)N[C@@H](CC(C)C)C(=O)N[C@@H](Cc1c[nH]cn1)C(=O)N[C@@H](CCCNC(=N)N)C(=O)N[C@@H](CC(C)C)C(=O)N[C@@H](CCC(N)=O)C(=O)N[C@@H](CC(=O)O)C(=O)N[C@@H](Cc1ccc(O)cc1)C(=O)N1CCC[C@H]1C(=O)N[C@@H](CCCNC(=N)N)C(=O)N[C@H](C(=O)N[C@@H](CC(=O)O)C(=O)N[C@H](C(=O)NCC(=O)N[C@@H](C)C(=O)NCC(=O)N[C@@H](CO)C(=O)N1CCC[C@H]1C(N)=O)C(C)C)[C@@H](C)O
B2: calcitonin derivative M23 (peptide)
peptide: {C18 diacid}-DASQLSTAVLGRLSQELHRLQDYPRTDVGSGSP-NH2
SMILES: CC(C)C[C@H](NC(=O)[C@H](CCCNC(=N)N)NC(=O)CNC(=O)[C@H](CC(C)C)NC(=O)[C@@H](NC(=O)[C@H](C)NC(=O)[C@@H](NC(=O)[C@H](CO)NC(=O)[C@H](CC(C)C)NC(=O)[C@H](CCC(N)=O)NC(=O)[C@H](CO)NC(=O)[C@H](C)NC(=O)[C@H](CC(=O)O)NC(=O)CCCCCCCCCCCCCCCCC(=O)O)[C@@H](C)O)C(C)C)C(=O)N[C@@H](CO)C(=O)N[C@@H](CCC(N)=O)C(=O)N[C@@H](CCC(=O)O)C(=O)N[C@@H](CC(C)C)C(=O)N[C@@H](Cc1c[nH]cn1)C(=O)N[C@@H](CCCNC(=N)N)C(=O)N[C@@H](CC(C)C)C(=O)N[C@@H](CCC(N)=O)C(=O)N[C@@H](CC(=O)O)C(=O)N[C@@H](Cc1ccc(O)cc1)C(=O)N1CCC[C@H]1C(=O)N[C@@H](CCCNC(=N)N)C(=O)N[C@H](C(=O)N[C@@H](CC(=O)O)C(=O)N[C@H](C(=O)NCC(=O)N[C@@H](CO)C(=O)NCC(=O)N[C@@H](CO)C(=O)N1CCC[C@H]1C(N)=O)C(C)C)[C@@H](C)O
B3: calcitonin derivative M40 (peptide)
peptide: {C16 diacid-γGlu}-ASQLSTAVLGRLSDELHRLQDYPRTDVGSGSP-NH2
SMILES: CC(C)C[C@H](NC(=O)[C@H](CCCNC(=N)N)NC(=O)CNC(=O)[C@H](CC(C)C)NC(=O)[C@@H](NC(=O)[C@H](C)NC(=O)[C@@H](NC(=O)[C@H](CO)NC(=O)[C@H](CC(C)C)NC(=O)[C@H](CCC(N)=O)NC(=O)[C@H](CO)NC(=O)[C@H](C)NC(=O)CC[C@H](NC(=O)CCCCCCCCCCCCCCC(=O)O)C(=O)O)[C@@H](C)O)C(C)C)C(=O)N[C@@H](CO)C(=O)N[C@@H](CC(=O)O)C(=O)N[C@@H](CCC(=O)O)C(=O)N[C@@H](CC(C)C)C(=O)N[C@@H](Cc1c[nH]cn1)C(=O)N[C@@H](CCCNC(=N)N)C(=O)N[C@@H](CC(C)C)C(=O)N[C@@H](CCC(N)=O)C(=O)N[C@@H](CC(=O)O)C(=O)N[C@@H](Cc1ccc(O)cc1)C(=O)N1CCC[C@H]1C(=O)N[C@@H](CCCNC(=N)N)C(=O)N[C@H](C(=O)N[C@@H](CC(=O)O)C(=O)N[C@H](C(=O)NCC(=O)N[C@@H](CO)C(=O)NCC(=O)N[C@@H](CO)C(=O)N1CCC[C@H]1C(N)=O)C(C)C)[C@@H](C)O
B4: calcitonin derivative M41 (peptide)
peptide: {C20 diacid}-EASQLSTAVLGRLSDELHRLQDYPRTDVGSGSP-NH2
SMILES: CC(C)C[C@H](NC(=O)[C@H](CCCNC(=N)N)NC(=O)CNC(=O)[C@H](CC(C)C)NC(=O)[C@@H](NC(=O)[C@H](C)NC(=O)[C@@H](NC(=O)[C@H](CO)NC(=O)[C@H](CC(C)C)NC(=O)[C@H](CCC(N)=O)NC(=O)[C@H](CO)NC(=O)[C@H](C)NC(=O)[C@H](CCC(=O)O)NC(=O)CCCCCCCCCCCCCCCCCCC(=O)O)[C@@H](C)O)C(C)C)C(=O)N[C@@H](CO)C(=O)N[C@@H](CC(=O)O)C(=O)N[C@@H](CCC(=O)O)C(=O)N[C@@H](CC(C)C)C(=O)N[C@@H](Cc1c[nH]cn1)C(=O)N[C@@H](CCCNC(=N)N)C(=O)N[C@@H](CC(C)C)C(=O)N[C@@H](CCC(N)=O)C(=O)N[C@@H](CC(=O)O)C(=O)N[C@@H](Cc1ccc(O)cc1)C(=O)N1CCC[C@H]1C(=O)N[C@@H](CCCNC(=N)N)C(=O)N[C@H](C(=O)N[C@@H](CC(=O)O)C(=O)N[C@H](C(=O)NCC(=O)N[C@@H](CO)C(=O)NCC(=O)N[C@@H](CO)C(=O)N1CCC[C@H]1C(N)=O)C(C)C)[C@@H](C)O
B5: calcitonin derivative M57 (peptide)
peptide: {C20 diacid-γGlu-AEEA-AEEA}-ASQLSTAVLGRLSEELHRLQDYPRTDVGSGSP-NH2
SMILES: CC(C)C[C@H](NC(=O)[C@H](CCCNC(=N)N)NC(=O)CNC(=O)[C@H](CC(C)C)NC(=O)[C@@H](NC(=O)[C@H](C)NC(=O)[C@@H](NC(=O)[C@H](CO)NC(=O)[C@H](CC(C)C)NC(=O)[C@H](CCC(N)=O)NC(=O)[C@H](CO)NC(=O)[C@H](C)NC(=O)COCCOCCNC(=O)COCCOCCNC(=O)CC[C@H](NC(=O)CCCCCCCCCCCCCCCCCCC(=O)O)C(=O)O)[C@@H](C)O)C(C)C)C(=O)N[C@@H](CO)C(=O)N[C@@H](CCC(=O)O)C(=O)N[C@@H](CCC(=O)O)C(=O)N[C@@H](CC(C)C)C(=O)N[C@@H](Cc1c[nH]cn1)C(=O)N[C@@H](CCCNC(=N)N)C(=O)N[C@@H](CC(C)C)C(=O)N[C@@H](CCC(N)=O)C(=O)N[C@@H](CC(=O)O)C(=O)N[C@@H](Cc1ccc(O)cc1)C(=O)N1CCC[C@H]1C(=O)N[C@@H](CCCNC(=N)N)C(=O)N[C@H](C(=O)N[C@@H](CC(=O)O)C(=O)N[C@H](C(=O)NCC(=O)N[C@@H](CO)C(=O)NCC(=O)N[C@@H](CO)C(=O)N1CCC[C@H]1C(N)=O)C(C)C)[C@@H](C)O
B6: calcitonin derivative M24 (peptide)
peptide: {C18 diacid}-EASQLSTAVLGRLSQELHRLQDYPRTDVGSGSP-NH2
SMILES: CC(C)C[C@H](NC(=O)[C@H](CCCNC(=N)N)NC(=O)CNC(=O)[C@H](CC(C)C)NC(=O)[C@@H](NC(=O)[C@H](C)NC(=O)[C@@H](NC(=O)[C@H](CO)NC(=O)[C@H](CC(C)C)NC(=O)[C@H](CCC(N)=O)NC(=O)[C@H](CO)NC(=O)[C@H](C)NC(=O)[C@H](CCC(=O)O)NC(=O)CCCCCCCCCCCCCCCCC(=O)O)[C@@H](C)O)C(C)C)C(=O)N[C@@H](CO)C(=O)N[C@@H](CCC(N)=O)C(=O)N[C@@H](CCC(=O)O)C(=O)N[C@@H](CC(C)C)C(=O)N[C@@H](Cc1c[nH]cn1)C(=O)N[C@@H](CCCNC(=N)N)C(=O)N[C@@H](CC(C)C)C(=O)N[C@@H](CCC(N)=O)C(=O)N[C@@H](CC(=O)O)C(=O)N[C@@H](Cc1ccc(O)cc1)C(=O)N1CCC[C@H]1C(=O)N[C@@H](CCCNC(=N)N)C(=O)N[C@H](C(=O)N[C@@H](CC(=O)O)C(=O)N[C@H](C(=O)NCC(=O)N[C@@H](CO)C(=O)NCC(=O)N[C@@H](CO)C(=O)N1CCC[C@H]1C(N)=O)C(C)C)[C@@H](C)O
B7: calcitonin derivative M9 (peptide)
peptide: {C20 diacid-γGlu}-ASQLSTAVLGRLSEELHRLQDYPRTDVGSGSP-NH2
SMILES: CC(C)C[C@H](NC(=O)[C@H](CCCNC(=N)N)NC(=O)CNC(=O)[C@H](CC(C)C)NC(=O)[C@@H](NC(=O)[C@H](C)NC(=O)[C@@H](NC(=O)[C@H](CO)NC(=O)[C@H](CC(C)C)NC(=O)[C@H](CCC(N)=O)NC(=O)[C@H](CO)NC(=O)[C@H](C)NC(=O)CC[C@H](NC(=O)CCCCCCCCCCCCCCCCCCC(=O)O)C(=O)O)[C@@H](C)O)C(C)C)C(=O)N[C@@H](CO)C(=O)N[C@@H](CCC(=O)O)C(=O)N[C@@H](CCC(=O)O)C(=O)N[C@@H](CC(C)C)C(=O)N[C@@H](Cc1c[nH]cn1)C(=O)N[C@@H](CCCNC(=N)N)C(=O)N[C@@H](CC(C)C)C(=O)N[C@@H](CCC(N)=O)C(=O)N[C@@H](CC(=O)O)C(=O)N[C@@H](Cc1ccc(O)cc1)C(=O)N1CCC[C@H]1C(=O)N[C@@H](CCCNC(=N)N)C(=O)N[C@H](C(=O)N[C@@H](CC(=O)O)C(=O)N[C@H](C(=O)NCC(=O)N[C@@H](CO)C(=O)NCC(=O)N[C@@H](CO)C(=O)N1CCC[C@H]1C(N)=O)C(C)C)[C@@H](C)O

These binders were tested against T1, human amylin receptor (AMY3) on … (assay: cell-based or functional assay).

First: B1
Second: B2
The “EC50/nM, CRE-luciferase in amylin receptor/CRE-luc CHO cells” value of the first is 1.6-fold higher: 0.016 nM for the first, 0.01 nM for the second.

Going from B3 to B4, the “EC50/nM, CRE-luciferase in amylin receptor/CRE-luc CHO cells” value rises from 0.002 nM to 0.069 nM (34-fold).

B5 and B6 are within 1.5-fold of each other in “EC50/nM, CRE-luciferase in amylin receptor/CRE-luc CHO cells” value: 0.017 nM for the first, 0.016 nM for the second.

B7 was tested, and the “EC50/nM, CRE-luciferase in amylin receptor/CRE-luc CHO cells” value was 0.017 nM.
